In patent publication US20090162366A1:
pEC50: −log10 of the molar value.

Experiments:
[1] = target: M2KTGEKS peptide conjugated with BSA (influenza A virus, A/Quail/Arkansas/16309-7/94 (H7N3NSA)); assay: peptide-BSA ELISA; legend: EC50 > 10^-8M: -
[2] = target: M2LTKGS peptide conjugated with BSA (influenza A virus, A/Hong Kong/542/97 (H5N1)); assay: peptide-BSA ELISA; legend: EC50 > 10^-8M: -
[3] = target: M2GHTGKS peptide conjugated with BSA (influenza A virus, A/chicken/HongKong/SF1/03 (H9N2)); assay: peptide-BSA ELISA; legend: EC50 > 10^-8M: -
[4] = target: M2HTGEKS peptide conjugated with BSA (influenza A virus, A/chicken/California/1002a/00 (H6N2)); assay: peptide-BSA ELISA; legend: EC50 > 10^-8M: -
[5] = target: M2PHTGS peptide conjugated with BSA (influenza A virus, A/chicken/HongKong/YU427/03 (H9N2)); assay: peptide-BSA ELISA; legend: EC50 > 10^-8M: -
[6] = target: M2TGEK-BSA conjugate (influenza A virus, A/Netherlands/33/03 (H7N7)); assay: peptide-BSA ELISA; legend: EC50 > 10^-8M: -
[7] = target: M2LTGEKS-BSA conjugate (influenza A virus, A/Hong Kong/1074/99 (H9N2)); assay: peptide-BSA ELISA; legend: EC50 > 10^-8M: -
[8] = target: M2TDGEKS peptide conjugated with BSA (influenza A virus, A/chicken/Pennsylvania/13552-1/98 (H7N2NSB)); assay: peptide-BSA ELISA; legend: EC50 > 10^-8M: -
[9] = target: M2LTGS peptide conjugated with BSA (influenza A virus, A/Hong Kong/156/97 (H5N1)); assay: peptide-BSA ELISA; legend: EC50 > 10^-8M: -
[10] = target: M2KTGEKS peptide conjugated with BSA (influenza A virus, A/Quail/Arkansas/16309-7/94 (H7N3NSA)); assay: peptide-BSA ELISA
[11] = target: M2LTKGS peptide conjugated with BSA (influenza A virus, A/Hong Kong/542/97 (H5N1)); assay: peptide-BSA ELISA
[12] = target: M2GHTGKS peptide conjugated with BSA (influenza A virus, A/chicken/HongKong/SF1/03 (H9N2)); assay: peptide-BSA ELISA
[13] = target: M2HTGEKS peptide conjugated with BSA (influenza A virus, A/chicken/California/1002a/00 (H6N2)); assay: peptide-BSA ELISA
[14] = target: M2PHTGS peptide conjugated with BSA (influenza A virus, A/chicken/HongKong/YU427/03 (H9N2)); assay: peptide-BSA ELISA
[15] = target: M2TGEK-BSA conjugate (influenza A virus, A/Netherlands/33/03 (H7N7)); assay: peptide-BSA ELISA
[16] = target: M2LTGEKS-BSA conjugate (influenza A virus, A/Hong Kong/1074/99 (H9N2)); assay: peptide-BSA ELISA
[17] = target: M2TDGEKS peptide conjugated with BSA (influenza A virus, A/chicken/Pennsylvania/13552-1/98 (H7N2NSB)); assay: peptide-BSA ELISA
[18] = target: M2LTGS peptide conjugated with BSA (influenza A virus, A/Hong Kong/156/97 (H5N1)); assay: peptide-BSA ELISA
[19] = target: M2LTGS (influenza A virus, A/Hong Kong/156/97 (H5N1))
[20] = target: M2LTGEKS (influenza A virus, A/Hong Kong/1074/99 (H9N2))
[21] = target: M2LTKGS (influenza A virus, A/Hong Kong/542/97 (H5N1))
[22] = target: M2HTGEKS (influenza A virus, A/chicken/California/1002a/00 (H6N2))
[23] = target: M2TGEKS (influenza A virus, A/Canada/rv504/2004 (H7N3))
[24] = target: M2KTGEKS (influenza A virus, A/Quail/Arkansas/16309-7/94 (H7N3NSA))
[25] = target: M2GHTGKS (influenza A virus, A/chicken/HongKong/SF1/03 (H9N2))
[26] = target: M2PHTGS (influenza A virus, A/chicken/HongKong/YU427/03 (H9N2))
[27] = target: M2TDGEKS (influenza A virus, A/chicken/Pennsylvania/13552-1/98 (H7N2NSB))
[28] = target: M2TGE (influenza A virus, A/DK/ST/5048/2001 (H3N8))
[29] = target: M2DLTGS peptide conjugated with BSA (influenza A virus, A/Hong Kong/485/97 (H5N1)); assay: peptide-BSA ELISA (++ EC50<10^-9M; + 10^-9M<EC50<10^-8M)
[30] = target: M2EG peptide conjugated with BSA (influenza A virus, A/New York/687/1995 (H3N2)); assay: as above
[31] = target: M2TGEKS peptide conjugated with BSA (influenza A virus, A/Canada/rv504/2004 (H7N3)); assay: as above
[32] = target: M2TGS-BSA conjugate (influenza A virus, A/chicken/Shanghai/F/98 (H9N2)); assay: as above
[33] = target: M2TGE-BSA conjugate (influenza A virus, A/DK/ST/5048/2001 (H3N8)); assay: as above
[34] = target: M2KGENS peptide conjugated with BSA (influenza A virus, A/Turkey/VA/158512/02 (H7N2)); assay: as above
[35] = target: M2FG peptide conjugated with BSA (influenza A virus, A/X-31 (H3N2)); assay: as above
[36] = target: M2TES peptide conjugated with BSA (influenza A virus, A/Viet Nam/1203/2004 (H5N1)); assay: as above
[37] = target: M2SG peptide conjugated with BSA (influenza A virus, A/swine/Tennessee/25/77 (H1N1)); assay: as above
[38] = target: M2-BSA conjugate (influenza A virus, A/Hong Kong/1/68 (H3N2)); assay: as above
[39] = target: M2 peptide (influenza A virus, A/Hong Kong/1/68 (H3N2)); assay: ELISA on peptide, Ab 10 µg/ml

mouse anti-M2 antibody 14C2
1.97 OD450: ELISA(OD450) [39]
< 10%: % of O.D. on M2 (SEQ ID NO:1) [19] | % of O.D. on M2 (SEQ ID NO:1) [20] | % of O.D. on M2 (SEQ ID NO:1) [21] | % of O.D. on M2 (SEQ ID NO:1) [22] | % of O.D. on M2 (SEQ ID NO:1) [23] | % of O.D. on M2 (SEQ ID NO:1) [24] | % of O.D. on M2 (SEQ ID NO:1) [25] | % of O.D. on M2 (SEQ ID NO:1) [26] | % of O.D. on M2 (SEQ ID NO:1) [27] | % of O.D. on M2 (SEQ ID NO:1) [28]
< 8.00: pEC50 [1] | pEC50 [2] | pEC50 [3] | pEC50 [4] | pEC50 [5] | pEC50 [6] | pEC50 [7] | pEC50 [8] | pEC50 [9] | pEC50 [10] | pEC50 [11] | pEC50 [12] | pEC50 [13] | pEC50 [14] | pEC50 [15] | pEC50 [16] | pEC50 [17] | pEC50 [18]
> 9.00: pEC50 [30] | pEC50 [32] | pEC50 [33] | pEC50 [34] | pEC50 [35] | pEC50 [36] | pEC50 [37] | pEC50 [38]
8.00 to 9.00: pEC50 [29] | pEC50 [31]
